From IntAct's records for PubMed 22939626

Molecular target: vira_shifl virA (UniProt Q7BU69)
Sequence (Q7BU69 whole entry): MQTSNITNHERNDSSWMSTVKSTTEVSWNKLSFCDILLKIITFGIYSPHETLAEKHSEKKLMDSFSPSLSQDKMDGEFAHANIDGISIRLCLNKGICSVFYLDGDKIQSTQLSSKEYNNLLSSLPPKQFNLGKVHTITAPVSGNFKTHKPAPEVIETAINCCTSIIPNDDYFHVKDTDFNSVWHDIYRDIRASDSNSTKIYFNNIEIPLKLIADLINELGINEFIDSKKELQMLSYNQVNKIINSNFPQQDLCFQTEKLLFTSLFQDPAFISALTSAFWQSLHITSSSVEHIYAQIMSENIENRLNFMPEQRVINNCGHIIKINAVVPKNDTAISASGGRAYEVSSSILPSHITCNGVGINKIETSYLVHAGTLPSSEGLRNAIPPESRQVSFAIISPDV

Chain of Ras-related protein Rab-1A (Homo sapiens), P62820 Q70L (P62820 whole entry Q70L): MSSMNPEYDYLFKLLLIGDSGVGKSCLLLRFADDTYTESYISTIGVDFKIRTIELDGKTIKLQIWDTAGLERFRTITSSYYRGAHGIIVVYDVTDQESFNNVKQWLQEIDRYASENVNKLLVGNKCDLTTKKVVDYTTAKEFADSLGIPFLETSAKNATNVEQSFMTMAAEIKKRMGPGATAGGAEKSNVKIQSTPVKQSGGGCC
Chain of Ras-related protein Rab-1A (Homo sapiens), P62820 S25N (P62820 whole entry S25N): as the sequence (P62820 whole entry Q70L) above, with S25N, L70Q counted along it

Row | Substance | effect of a mutation on the interaction
1 | Ras-related protein Rab-1A (Homo sapiens), P62820 S25N | decreasing interaction strength
2 | Ras-related protein Rab-1A (Homo sapiens), P62820 Q70L | increasing interaction strength
